Laboratory results as given in patent US20250115668A1 (BIOCYTOGEN PHARMACEUTICALS BEIJING, published 2025).

B1: CT-5E3-IgG1 (antibody, V domains shown)
VH: QVQLVESGPGLVKPSETLSLTCTVSGGSISSSSYYWGWIRQPPGKGLEWIGSIYYTGNTYYNPSLKSRVTISVDTSKNQFSLKLSSVTAADTAVYYCARVGFSYGHPFDYWGQGTLVTVSS
VL: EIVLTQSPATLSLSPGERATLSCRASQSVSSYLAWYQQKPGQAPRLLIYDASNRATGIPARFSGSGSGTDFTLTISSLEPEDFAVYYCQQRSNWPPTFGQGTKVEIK
notes: Human anti-CTLA4 antibody; IgG1 constant regions
B2: CT-5F9-IgG1 (antibody, V domains shown)
VH: QVQLVESGPGLLKPSETLSLTCTVSGGSISSSSSYWGWIRQPPGKGLEWIGSIYYSGITYYNPSLKSRVTISVDTSKNQFSLKVSSVTAADTAVYYCARLNWNQVFDYWGQGTLVTVSS
VL: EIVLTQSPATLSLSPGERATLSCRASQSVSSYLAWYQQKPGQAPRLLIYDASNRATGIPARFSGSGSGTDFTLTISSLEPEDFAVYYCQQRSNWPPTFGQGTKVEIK
notes: as for B1
B3: CT-4E12-IgG1 (antibody, V domains shown)
VH: QVQLVESGPGLVKPSETLSLTCAVSGGSISSSSYYWGWIRQPPGKGLEWIGNIYYTGITYYNPSLKSRITISVDTSKNQFSLKLSSVTAADTAVYYCARVGGYSYGYLFDYWGQGTLVTVSS
VL: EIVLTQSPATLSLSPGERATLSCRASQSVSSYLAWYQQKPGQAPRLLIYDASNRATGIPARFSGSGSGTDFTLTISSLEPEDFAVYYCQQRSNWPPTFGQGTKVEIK
notes: as for B1
B4: OX-H7-IgG1 (antibody, V domains shown)
VH: QITLKESGPTLVKPAQTLTLTCTFSGFSLSTSGVGVGWIRQPPGKALEWLALIYWDDDKLYSPSLKSRLTITKDTSKNQVVLAMTNMDPVDTATYYCAHSQLGRDDYWGQGTLVTVSS
VL: EIVLTQSPATLCLSPGERATLSCRASQSVSNYLAWYQQKPGQAPRLLIYAASSRATGIPARFSGSGSGTDFTLTISTLEPEDFAVYYCQQRRDWPPTFGQGTKVEIK
notes: Monoclonal anti-OX40 antibody, IgG1 constant regions; also called 040-H7-IgG1
B5: OX-2C11-CT-4E12-IgG1-SI (bispecific antibody, V domains shown)
VH 1: EVQLVQSGGGLVKPGGSLRLSCAASGFTFSDSYMSWIRQAPGKGLEWISYISSSISYTKYADSVKGRFTISRDNAKNSLYLEMNSLRAEDTAVYYCARDYYDSGNYYYYFDYWGQGTLVTVSS
VH 2: B3 VH
VL: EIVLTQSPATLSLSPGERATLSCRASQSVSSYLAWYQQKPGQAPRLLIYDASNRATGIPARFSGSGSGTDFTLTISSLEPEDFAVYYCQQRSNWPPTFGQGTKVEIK
notes: 1+1 knobs-into-holes human IgG1 with common light chain; SI mutations (S239D, I332E, EU) in Fc
B6: OX-2F5-CT-3D2-IgG1-SI (bispecific antibody, V domains shown)
VH 1: QVQLVESGPTLVKPTQTLTLTCTFSGFSLSTSGVGVGWIRQSPGKALEWLSLIYWDDDKRYNPSLKSRLTVTKDTSKNQVVLAMTNMDPVDTATYFCAHRAHSSSSSDYWGQGTLVTVSS
VH 2: QVQLVESGPGLVKPSETLSLTCTVSGDSIRSSHYYWGWIRQPPGKGLEWIGSIYFNGITYYSPSLKSRVTISVDTSKNQFSLKLTSVTAADTAVFYCARHNNYYDSSGYWYYFDYWGQGTLVTVSS
VL: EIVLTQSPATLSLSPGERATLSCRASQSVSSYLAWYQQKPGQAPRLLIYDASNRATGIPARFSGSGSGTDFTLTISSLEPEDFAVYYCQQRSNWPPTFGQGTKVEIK
notes: 1+1 knobs-into-holes human IgG1 with common light chain; SI mutations (S239D, I332E, EU)
B7: OX-1F9-CT-3D2-IgG1-SI (bispecific antibody, V domains shown)
VH 1: EVQLVESGGGLVQPGGSLRLSCAASGFTFSNYEMNWVRQAPGKGLEWISYIGSSGSTIYYADSVKGRFTISRDNAKNSLYLQMNSLRAEDTAVYYCAVDYIFDYWGQGTLVTVSS
VH 2: B6 VH 2
VL: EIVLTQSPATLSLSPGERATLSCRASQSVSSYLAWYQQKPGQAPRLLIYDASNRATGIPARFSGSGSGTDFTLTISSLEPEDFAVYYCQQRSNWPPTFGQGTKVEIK
notes: as for B6
B8: CT-5E3-OX-2F2-IgG1-SI (bispecific antibody, V domains shown)
VH 1: B1 VH
VH 2: QVQLVESGGGLVQPGGSLRLSCAASGFTVSNNYMSWVRQAPGKGLEWVSVIYGGGDTYYADSVKGRFTISRDNSQNTLYLQMTSLRADDTAVYYCARGLTIFGVVPFDPWGQGTLVTVSS
VL: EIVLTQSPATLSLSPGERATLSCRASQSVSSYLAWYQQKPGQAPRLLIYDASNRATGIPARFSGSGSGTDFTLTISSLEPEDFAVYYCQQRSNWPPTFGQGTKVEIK
notes: as for B6
B9: OX-2F2-CT-3D2-IgG1-SI (bispecific antibody, V domains shown)
VH 1: B8 VH 2
VH 2: B6 VH 2
VL: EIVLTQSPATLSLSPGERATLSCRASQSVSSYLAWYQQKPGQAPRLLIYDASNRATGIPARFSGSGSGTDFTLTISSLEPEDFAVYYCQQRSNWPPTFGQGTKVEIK
notes: as for B6
B10: OX-2C11-IgG1 (antibody, V domains shown)
VH: B5 VH 1
VL: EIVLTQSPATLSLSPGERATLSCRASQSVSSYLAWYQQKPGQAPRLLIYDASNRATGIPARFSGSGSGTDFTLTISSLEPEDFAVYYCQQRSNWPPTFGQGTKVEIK
notes: Human anti-OX40 antibody; IgG1 constant regions
B11: OX-2F5-IgG1 (antibody, V domains shown)
VH: B6 VH 1
VL: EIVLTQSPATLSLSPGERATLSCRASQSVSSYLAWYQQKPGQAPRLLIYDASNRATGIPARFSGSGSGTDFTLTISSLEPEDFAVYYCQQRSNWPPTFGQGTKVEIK
notes: as for B10
B12: OX-2F2-IgG1 (antibody, V domains shown)
VH: B8 VH 2
VL: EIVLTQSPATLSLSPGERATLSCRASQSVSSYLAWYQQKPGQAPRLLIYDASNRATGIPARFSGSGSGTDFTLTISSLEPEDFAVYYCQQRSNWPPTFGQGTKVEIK
notes: as for B10
B13: OX-1F9-IgG1 (antibody, V domains shown)
VH: B7 VH 1
VL: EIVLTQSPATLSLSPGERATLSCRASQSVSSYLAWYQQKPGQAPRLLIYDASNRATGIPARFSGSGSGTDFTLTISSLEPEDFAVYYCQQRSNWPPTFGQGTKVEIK
notes: Human anti-OX40 antibody from RenLite mice

target: T1, Human CTLA4 protein having a His-Tag (human, UniProt P16410 37-162, limits assumed); assay: SPR Biacore 8K, Protein A chip; antibody captured, antigen analyte
T1 construct: Bought recombinant protein; also called hCTLA4-His; hCTLA4; not shown: His tag
T1 sequence (looked up): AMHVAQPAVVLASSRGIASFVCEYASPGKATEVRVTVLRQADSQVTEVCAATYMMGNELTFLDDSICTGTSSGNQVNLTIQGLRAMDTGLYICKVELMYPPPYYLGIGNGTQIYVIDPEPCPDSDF

Compared with B1, B2 is 2.9-fold lower in Kd: 21.8 nM for the first, 7.48 nM for the second. The second binds more tightly here.

With B3 the Kd was 17 nM.

Going from B1 to B2, the koff rises from 0.000674 s⁻¹ to 0.00123 s⁻¹ (1.8-fold).

B3 gave a koff of 0.000422 s⁻¹.

Going from B1 to B2, the kon rises from 30900 M⁻¹ s⁻¹ to 164000 M⁻¹ s⁻¹ (5.3-fold).

With B3 the kon was 24800 M⁻¹ s⁻¹.

target: T2, human OX40 expressed on transfected cells (human, UniProt P43489 29-277); assay: flow cytometry (MFI, anti-hIgG-Fc-Alexa Fluor 647) on HEK293T-hCTLA4-hOX40 cells co-expressing human CTLA4 and human OX40
T2 construct: whole, on cells; also called hOX40 on HEK293T-hCTLA4-hOX40 cells; on Jurkat-luc-hOX40
T2 sequence (looked up): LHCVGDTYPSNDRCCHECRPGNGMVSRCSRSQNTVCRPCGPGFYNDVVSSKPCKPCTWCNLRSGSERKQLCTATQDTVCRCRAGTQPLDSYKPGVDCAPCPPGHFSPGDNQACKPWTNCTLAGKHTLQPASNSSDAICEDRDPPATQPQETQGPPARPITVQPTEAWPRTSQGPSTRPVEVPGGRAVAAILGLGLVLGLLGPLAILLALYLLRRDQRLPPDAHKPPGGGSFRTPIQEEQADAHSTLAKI

B4 was tested, and the “EC50 (read off the curve)” value was about 5 µg/mL.

target: T3, Human OX40 protein having a His-Tag (human, UniProt P43489 29-216, limits assumed); assay: SPR Biacore 8K, Protein A chip; antibody captured, antigen analyte
T3 construct: Bought recombinant protein; also called hOX40-His; hOX40; not shown: His tag
T3 sequence (looked up): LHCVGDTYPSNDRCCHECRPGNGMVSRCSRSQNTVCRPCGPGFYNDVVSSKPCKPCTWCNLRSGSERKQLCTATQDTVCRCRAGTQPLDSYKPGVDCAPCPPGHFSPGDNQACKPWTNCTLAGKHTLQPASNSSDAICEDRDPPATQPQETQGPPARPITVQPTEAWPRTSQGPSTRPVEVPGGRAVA

First: B5
Second: B6
The Kd of the first is 4.2-fold lower: 16.7 nM for the first, 69.6 nM for the second.

Compared with B7, B8 is 2.2-fold higher in Kd: 22.8 nM for the first, 50.2 nM for the second. The first binds more tightly here.

Compared with B5, B6 is 15-fold higher in koff: 0.000626 s⁻¹ for the first, 0.00947 s⁻¹ for the second.

Going from B7 to B8, the koff rises from 0.00698 s⁻¹ to 0.0136 s⁻¹ (1.9-fold).

Compared with B5, B6 is 3.6-fold higher in kon: 37500 M⁻¹ s⁻¹ for the first, 136000 M⁻¹ s⁻¹ for the second.

B7 and B8 are within 1.5-fold of each other in kon: 306000 M⁻¹ s⁻¹ for the first, 270000 M⁻¹ s⁻¹ for the second.

target: T4, Cynomolgus/Rhesus macaque OX40/TNFRSF4/CD134 Protein, His Tag (Cynomolgus/Rhesus macaque); assay: as above
T4 construct: Bought recombinant protein; also called fasOX40-His; monkey OX40

B5 and B6 are within 1.5-fold of each other in Kd: 37 nM for the first, 30.4 nM for the second.

Compared with B7, B8 is 2-fold higher in Kd: 2.48 nM for the first, 4.91 nM for the second. The first binds more tightly here.

First: B5
Second: B6
The koff of the first is 38-fold lower: 0.000685 s⁻¹ for the first, 0.0257 s⁻¹ for the second.

Going from B7 to B8, the koff falls from 0.000371 s⁻¹ to 0.000205 s⁻¹ (1.8-fold).

First: B5
Second: B6
The kon of the first is 46-fold lower: 18500 M⁻¹ s⁻¹ for the first, 845000 M⁻¹ s⁻¹ for the second.

Compared with B7, B8 is 3.6-fold lower in kon: 150000 M⁻¹ s⁻¹ for the first, 41800 M⁻¹ s⁻¹ for the second.

target: T1, Human CTLA4 protein having a His-Tag; assay: as above; remark: another data set of the same source

B5 and B9 are within 1.5-fold of each other in Kd: 10.2 nM for the first, 14.2 nM for the second.

B8 showed a Kd of 27.8 nM.

Going from B5 to B9, the koff rises from 0.00023 s⁻¹ to 0.000774 s⁻¹ (3.4-fold).

B8 was tested, and the koff was 0.000909 s⁻¹.

First: B5
Second: B9
The kon of the first is 2.4-fold lower: 22400 M⁻¹ s⁻¹ for the first, 54600 M⁻¹ s⁻¹ for the second.

Work on B8 yielded a kon of 32700 M⁻¹ s⁻¹.

target: T5, Cynomolgus/Rhesus macaque CTLA-4 Protein, His Tag (Cynomolgus/Rhesus macaque); assay: as above
T5 construct: Bought recombinant protein; also called fasCTLA4-His; FasCTLA4-His

Compared with B5, B9 is 2.3-fold lower in Kd: 11.2 nM for the first, 4.77 nM for the second.

B8 was tested, and the Kd was 8.36 nM.

B5 and B9 are within 1.5-fold of each other in koff: 0.000422 s⁻¹ for the first, 0.000612 s⁻¹ for the second.

In the case of B8, the koff is reported as 0.00105 s⁻¹.

First: B5
Second: B9
The kon of the first is 3.4-fold lower: 37800 M⁻¹ s⁻¹ for the first, 128000 M⁻¹ s⁻¹ for the second.

For B8, the kon was 126000 M⁻¹ s⁻¹.

target: T3, Human OX40 protein having a His-Tag; assay: as above; remark: another data set of the same source

Compared with B10, B11 is 6-fold higher in Kd: 7.59 nM for the first, 45.6 nM for the second.

B12 and B4 are within 1.5-fold of each other in Kd: 20 nM for the first, 13.8 nM for the second.

With B13 the Kd was 22.6 nM.

First: B10
Second: B11
The koff of the first is 83-fold lower: 0.000412 s⁻¹ for the first, 0.0343 s⁻¹ for the second.

Compared with B12, B4 is 2.6-fold lower in koff: 0.0217 s⁻¹ for the first, 0.00824 s⁻¹ for the second.

With B13 the koff was 0.00744 s⁻¹.

Going from B10 to B11, the kon rises from 54400 M⁻¹ s⁻¹ to 753000 M⁻¹ s⁻¹ (14-fold).

Compared with B12, B4 is 1.8-fold lower in kon: 1.09e+06 M⁻¹ s⁻¹ for the first, 598000 M⁻¹ s⁻¹ for the second.

B13 was tested, and the kon was 330000 M⁻¹ s⁻¹.
